Results on 33 variants are retold here after publication PMC11362571, “Multistage protective anti-CelTOS monoclonal antibodies with cross-species sterile protection against malaria” (Nature Communications, 2024).

The chains are these.
B1: monoclonal antibody 4h12 (IgG) [mouse] / P. falciparum CelTOS (3D7, PF3D7_1216600, residue F25-D182) [P. falciparum] (parent complex)
chain 1: QVQLQQSGPELVKPGASVKISCKASGYALSSSWLNWVKQRPGQGLEWIGRIFPGDGDTNYNGKFKGKATLTADKSSSTAYLQLSSLTSVDSAVYFCARGGTVVFDYWGQGTTLTVSSAKTTPPSVYPLAPGSAAQTNSMVTLGCLVKGYFPEPVTVTWNSGSLSSGVHTFPAVLQSDLYTLSSSVTVPSSTWPSETVTCNVAHPASSTKVDKKIVPRD
chain 2: DIVMTQSHKFMSTSVGDRVNITCKASQDVGIAVAWYQQRPGQSPKLLIYWASKRHTGVHDRFTGTGSGTDFTLTISTVQSEDLADYFCQQYSNSLTFGAGTTLELSRADAAPTVSIFPPSSEQLTSGGASVVCFLNNFYPKDINVKWKIDGSERQNGVLNSWTDQDSKDSTYSMSSTLTLTKDEYERHNSYACEATHKTSTSPIVKSFNR
chain 3: FRGNNGHNSSSSLYNGSQFIEQLNNSFTSAFLESQSMNKIGDDLAETISNELVSVLQKNSPTFLESSFDIKSEVKKHAKSMLKELIKVGLPSFENLVAENVKPPKVDPATYGIIVPVLTSLFNKVETAVGAKVSDEIWNYNSPDVSESEESLSDDFFD
B2: monoclonal antibody 7g7 (IgG) [mouse] / P. vivax CelTOS (Sal-1, PVX_123510, residue L36-D196) [P. vivax] (parent complex)
chain 1: EIQLQQSGPELVKPGASVKVSCKASGYSFTDYNMYWVKQSHGKSLEWIGYIDPYNGGTRYNQKFRDKATLTVDKSSSTAFMHLNSLTSEDSAVYYCARGYYYGNPLHFDVWGAGTTVTVSSAKTTPPSVYPLAPGSAAQTNSMVTLGCLVKGYFPEPVTVTWNSGSLSSGVHTFPAVLQSDLYTLSSSVTVPSSTWPSETVTCNVAHPASSTKVDKKIVPR
chain 2: QIVLTQSPAIMSASPGEKVTMTCSASSSVSYIHWYQQKSGTSPKRWIYDTSKLASGVPARFSGSGSGTSYSLTISSMEAEDAATYYCQQWISYPATFGAGTKLELKRADAAPTVSIFPPSSEQLTSGGASVVCFLNNFYPKDINVKWKIDGSERQNGVLNSWTDQDSKDSTYSMSSTLTLTKDEYERHNSYTCEATHKTSTSPIVKSFNRNEC
chain 3: LRGKSGSTASSSLEGGSEFSERIGNSLSSFLSESASLEVIGNELADNIANEIVSSLQKDSASFLQSGFDVKTQLKATAKKVLVEALKAALEPTEKIVASTIKPPRVSEDAYFLLGPVVKTLFNKVEDVLHKPIPDTIWEYESKGSLEEEEAEDEFSDELLD

The first assay covers variants of B1. Kind of assay: ELISA; parent: 100; read off a plot.
With chain 3 G16A, chain 3 S17A, chain 3 Q18A, the percent of parent was approximately 93%. Take chain 3 Q57A, chain 3 K58A, chain 3 N59A: the percent of parent was approximately 1%. Regarding chain 3 S67A, chain 3 F68A, chain 3 D69A, the percent of parent was approximately 94%. For the variant chain 3 Y14A, chain 3 N15A, chain 3 G16A, the percent of parent is approximately 96%. The same measure, in the same setting: the result for chain 3 S29A, chain 3 F31A reads approximately 92%; that for chain 3 Q35A, chain 3 S36A, chain 3 M37A, approximately 100%; that for chain 3 G112A, chain 3 I113A, chain 3 I114A, approximately 98%. On the same count and under the same terms, the result for chain 3 K132A, chain 3 V133A, chain 3 S134A reads approximately 99%; that for chain 3 W138A, chain 3 N139A, chain 3 Y140A, approximately 93%. The same measure, in the same setting: the result for chain 3 L32A, chain 3 E33A, chain 3 S34A reads approximately 91%. For chain 3 I70A, chain 3 K71A, chain 3 S72A, chain 3 E73A, the percent of parent was approximately 75%. Same read-out and setting: the same measure for chain 3 V129A, chain 3 G130A: approximately 100%; for chain 3 S60A, chain 3 P61A, chain 3 T62A: approximately 27%. Consider chain 3 F63A, chain 3 L64A, chain 3 E65A, for which the percent of parent was approximately 0%. Take chain 3 P108A: the percent of parent was approximately 96%. Turning to chain 3 D135A, chain 3 E136A, chain 3 I137A, the percent of parent was approximately 98%.

Variants of B2 are the subject of a further assay. In words: ELISA; parent: 100; read off a plot. For orientation: An ELISA detects its analyte on a solid surface through an enzyme-linked reagent.
As to chain 3 G115A, chain 3 P116A, chain 3 V117A, the percent of parent was approximately 94%.

As for chain 3 F63A, chain 3 L64A, chain 3 Q65A, the percent of parent was approximately 100%. On to chain 3 E108A, chain 3 D109A, for which the percent of parent is approximately 68%. Turning to chain 3 E14A, chain 3 G15A, chain 3 G16A, the percent of parent is approximately 100%. On to chain 3 L129A, chain 3 H130A, chain 3 K131A, for which the percent of parent was approximately 1%. On to chain 3 G16A, chain 3 S17A, chain 3 E18A, for which the percent of parent was approximately 98%. In the case of chain 3 W138A, chain 3 E139A, chain 3 Y140A, the percent of parent is approximately 1%. Still for that read-out and setting: the result for chain 3 K102A, chain 3 P103A, chain 3 P104A reads approximately 86%; that for chain 3 R105A, chain 3 V106A, chain 3 S107A, approximately 77%. The same measure, in the same setting: the same measure for chain 3 S36A, chain 3 L37A: approximately 93%. Still for that read-out and setting: the result for chain 3 Q57A, chain 3 K58A, chain 3 D59A reads approximately 98%; that for chain 3 S29A, chain 3 F30A, chain 3 L31A, approximately 100%; that for chain 3 F112A, chain 3 L113A, chain 3 L114A, approximately 50%. Regarding chain 3 G67A, chain 3 F68A, chain 3 D69A, the percent of parent is approximately 99%. Consider chain 3 S60A, chain 3 S62A, for which the percent of parent is approximately 100%. Take chain 3 S32A, chain 3 E33A, chain 3 S34A: the percent of parent was approximately 83%. As to chain 3 P132A, chain 3 I133A, chain 3 P134A, the percent of parent is approximately 1%.
